Data published in patent US20170145112A1 (Genentech, published 2017).
Substitutions are numbered along the chain they refer to. In names and notes the source's numbering stands.

T1: Cynomolgus monkey complement Factor D (cynomolgus monkey, UniProt P00746 26-253 (human entry))
T1 construct: also called cyfD; cFD
T1 chain: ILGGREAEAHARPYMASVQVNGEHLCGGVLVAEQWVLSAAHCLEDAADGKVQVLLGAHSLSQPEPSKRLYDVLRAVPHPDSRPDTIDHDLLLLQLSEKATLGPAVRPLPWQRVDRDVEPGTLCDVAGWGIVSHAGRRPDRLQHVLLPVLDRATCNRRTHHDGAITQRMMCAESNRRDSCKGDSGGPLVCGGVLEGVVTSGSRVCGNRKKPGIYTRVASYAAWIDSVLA

B1: AFD.v8.C + PEG tetramer (Fab, V domains shown)
VH: EVQLVQSGPELKKPGASVKVSCKASGYTFTNYGMNWVRQAPGQGLEWMGWINTYTGETTYAEDFKGRFVFSLDTSVSTAYLQISSLKAEDTAVYYCEREGGVNNWGQGTLVTVSS
VL: DIQVTQSPSSLSASVGDRVTITCITSTSIESDMNWYQQKPGKVPKLLISGGNTLRPGVPSRFSGSGSGTDFTLTISSLQPEDVATYYCLQSDSLPYTFGQGTKVEIKR
modifications: C-terminal Cys linked through maleimide to 40K-tetramer-PEG (Sunbright PTE-400MA)
B2: AFD.v8 Fab (Fab, V domains shown)
VH: B1 VH
VL: B1 VL
notes: Variant of lampalizumab
B3: AFD.v14.C + PEG tetramer (Fab, V domains shown)
VH: B1 VH with N103S
VL: B1 VL
modifications: C-terminal Cys linked through maleimide to a PEG tetramer
B4: AFD.v14 Fab (Fab, V domains shown)
VH: B1 VH with N103S
VL: B1 VL
notes: Variant of lampalizumab; also called SIESD.N103S
B5: Lampalizumab (Fab, V domains shown)
VH: B1 VH with E62D
VL: B1 VL with S28D, E30D, S31D
notes: Humanized anti-Factor D Fab fragment; also called aFD.WT; FCFD4515S
B6: hu20D12.v2.3.C + PEG tetramer (Fab, V domains shown)
VH: EVQLVQSGAEVKKPGASVKVSCKASGYTFTSYYMYWVRQAPGQGLEWIGEINPYSGDTNFNEKFKSRATLTVDTSTSTAYLELSSLRSEDTAVYYCAREGGFAYWGQGTLVTVSS
VL: DIQMTQSPSSLSASVGDRVTITCKASQNVDTDVAWFQQKPGKAPKGLIRSASSRYSGVPSRFSGSGSGTDFTLTISSLQPEDFATYYCQQYNNYPLTFGQGTKVEIKR
modifications: C-terminal Cys linked through maleimide to 40K-tetramer-PEG (Sunbright PTE-400MA)
B7: hu20D12.v2.3.C+TP-Oct (Fab, V domains shown)
VH: B6 VH
VL: B6 VL
modifications: C-terminal Cys (Cys-226, EU numbering) linked through maleimide to a 40K eight-armed PEG with tripentaerythritol (TP) core
B8: hu20D12.v2.1.C+TP-Oct (Fab, V domains shown)
VH: B6 VH with Y54T, D57G
VL: B6 VL
modifications: C-terminal Cys (Cys-226, EU numbering) linked through maleimide to a 40K eight-armed PEG with tripentaerythritol (TP) core
B9: hu20D12.v2.12 Fab (Fab, V domains shown)
VH: B6 VH with D57G
VL: B6 VL
B10: hu20D12.v2.14 Fab (Fab, V domains shown)
VH: B6 VH with Y54T, D57E
VL: B6 VL
B11: hu20D12.v2.13 Fab (Fab, V domains shown)
VH: B6 VH with Y54T, D57G
VL: B6 VL with N92E
B12: hu20D12.v2.10 Fab (Fab, V domains shown)
VH: B6 VH with Y54T, D57G
VL: B6 VL with R49Y, Y55K
B13: hu20D12.v2.11 Fab (Fab, V domains shown)
VH: B6 VH with Y54T, D57G
VL: B6 VL with R49Y, Y55R
B14: hu20D12.v2.7 Fab (Fab, V domains shown)
VH: B6 VH with Y54T, D57G
VL: B6 VL with R49K
B15: hu20D12.v2.15 Fab (Fab, V domains shown)
VH: B6 VH with D57E
VL: B6 VL
B16: hu20D12.v2.2 Fab (Fab, V domains shown)
VH: B6 VH with Y54T
VL: B6 VL with R49Y
B17: hu20D12.v2.5 Fab (Fab, V domains shown)
VH: B6 VH with D57G
VL: B6 VL with R49Y
B18: hu20D12.v2.8 Fab (Fab, V domains shown)
VH: B6 VH with Y54T, D57G
VL: B6 VL with R49Q
B19: hu20D12.v2.6 Fab (Fab, V domains shown)
VH: B6 VH with Y54T, D57G
VL: B6 VL with R49S
B20: hu20D12.v2.4 Fab (Fab, V domains shown)
VH: B6 VH with Y54T, D57E
VL: B6 VL with R49Y
B21: hu20D12.v2.9 Fab (Fab, V domains shown)
VH: B6 VH with E50W, Y54T, D57G
VL: B6 VL with R49Y

Experiments:
[1] = target: T2, Human complement Factor D, mature (human, UniProt P00746 27-253); assay: cell-based or functional assay
Target sequence in this assay (P00746 27-253): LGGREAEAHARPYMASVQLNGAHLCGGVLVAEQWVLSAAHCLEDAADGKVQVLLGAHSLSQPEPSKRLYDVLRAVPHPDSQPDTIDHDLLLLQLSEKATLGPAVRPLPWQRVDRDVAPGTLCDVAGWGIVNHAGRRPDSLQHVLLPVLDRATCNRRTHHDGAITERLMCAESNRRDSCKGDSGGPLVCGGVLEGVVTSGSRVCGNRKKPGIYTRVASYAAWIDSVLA

[2] = target: T2, Human complement Factor D, mature; assay: SPR (Biacore T200): Fab captured with anti-huFab kit, human Factor D injected, 25 C, 1:1 model;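 further: sensorgrams were corrected by subtracting a blank injection of running buffer before fitting kinetic and affinity constants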
Method: (§1) Kinetics and binding constant KD for Factor D binding to immobilized hu20D12 versions was determined by surface plasmon resonance (SPR) measurements on a Biacore®T200 instrument. […] After subtraction of the sensorgram observed for injection of running buffer, data were analyzed according to a 1:1 model using BiaEval software v4.1 (GE Healthcare) to extract the kinetics and affinity constants.

[3] = target: T2, Human complement Factor D, mature; assay: cell-based or functional assay; remark: listed apart in the source
[4] = target: T1, Cynomolgus monkey complement Factor D; assay: SPR (Biacore T200), Fab format; cynomolgus Factor D (column 'KD (pM) cFD (cyno)')
[5] = target: T2, Human complement Factor D, mature; assay: cell-based or functional assay; remark: listed apart in the source
Target sequence in this assay (P00746 27-253): as above

[6] = target: T2, Human complement Factor D, mature; assay: SPR, at the limit of detection
Target sequence in this assay (P00746 27-253): as above
Method: as §1

Binder	Kd [2] [pM]	koff [2] [s⁻¹]	kon [2] [M⁻¹ s⁻¹]	further results
B1	–	–	–	AVG IC50 (pM), TR-FRET assay of Factor D-dependent factor B activation [1]: 11 pM
B2	10.5	0.00021	2e+07	AVG IC50 (pM), TR-FRET assay of Factor D-dependent factor B activation [1]: 27.6 pM; FRET IC50 (TR-FRET assay of Factor D-dependent factor B activation), value 1 of 2 in the cell [3]: 21 pM; FRET IC50 (TR-FRET assay of Factor D-dependent factor B activation), value 2 of 2 in the cell [3]: 28 pM; Kd [4]: 24 pM
B3	–	–	–	AVG IC50 (pM), TR-FRET assay of Factor D-dependent factor B activation [1]: 14.8 pM
B4	23.3	0.00021	9e+06	IC50, TR-FRET assay of Factor D (50 pM) cleavage of factor B [5]: 26 pM; AVG IC50 (pM), TR-FRET assay of Factor D-dependent factor B activation [1]: 34 pM; FRET IC50 (TR-FRET assay of Factor D-dependent factor B activation), value 1 of 3 in the cell [3]: 25 pM; FRET IC50 (TR-FRET assay of Factor D-dependent factor B activation), value 2 of 3 in the cell [3]: 34 pM; FRET IC50 (TR-FRET assay of Factor D-dependent factor B activation), value 3 of 3 in the cell [3]: 26 pM; Kd [4]: 56 pM
B5	–	–	–	Kd [4]: 30 pM
B6	–	–	–	AVG IC50 (pM), TR-FRET assay of Factor D-dependent factor B activation [1]: 35.2 pM
B7	–	–	–	IC50, TR-FRET assay of Factor D (50 pM) cleavage of factor B [5]: 13 pM
B8	–	–	–	IC50, TR-FRET assay of Factor D (50 pM) cleavage of factor B [5]: 31 pM
B9	< 10	0.00015	1.8e+07	Kd [6]: ~10 pM
B10	< 10	8e-05	1.5e+07	Kd [6]: ~10 pM; FRET IC50 (TR-FRET assay of Factor D-dependent factor B activation) [3]: 25 pM; Kd [4]: 50 pM
B11	< 10	0.00013	4.1e+07	Kd [6]: ~10 pM
B12	6000	0.03	5e+06	–
B13	10000	0.03	3e+06	–
B14	49	0.00055	1.1e+07	–
B15	< 10	6e-05	1.9e+07	Kd [6]: ~10 pM; FRET IC50 (TR-FRET assay of Factor D-dependent factor B activation) [3]: 24 pM; Kd [4]: 27 pM
B16	65	0.00095	1.5e+07	–
B17	45	0.00079	1.7e+07	–
B18	61	0.004	6.6e+07	–
B19	143	0.0003	2.1e+06	–
B20	28	0.00049	1.7e+07	–
B21	185	0.0063	3.4e+07	–
